Laboratory results reported in the nanobody polyreactivity screen of Harvey et al. (2022).

Assay: yeast display, Sf9 membrane polyspecificity reagent, FACS + sequencing; frameworks hold sequencing errors
Method in brief: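 Sorting gates, low and high (top ~1%), were placed on anti-HA fluorescence to track expression and on streptavidin fluorescence to track reagent binding. A clone's polyreactivity label is taken from the gate it came out of. The reagent was 10% biotinylated, detergent-solubilized Sf9 membrane, applied for 1 hour at 4 °C to galactose-induced yeast display cells.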

Sequence | polyreactivity (PSR sort gate)
QVQLVESGGGLVQAGGSLRLSCAASGSIFYVYAMGWYRQAPGKEREMVAAISKSGGSTYYADSVKGRFTISRDNAKNTVYLQMNSLKPEDTADYYCAAYFSYGSIIEDYWGQGTQVTVSS | low polyreactivity
EVQLVESGGGLVQAGGSLRLSCAASGSIFYTNTMGWYRQAPGKERELVATGSTYYADSVKGRFTISRDNAKNTVYLQMNSLKPEDTAVYYCAKRGDFLTTRYESGSAASDYWGQGTQVTVSS | low polyreactivity
QVQLVESGGGLVQAGGSLRLSCAASGIIFRYYAMGWYRQAPGKERELVAGISYRGGSTYYADSVKGRFTISRDNAKNTVYLQMNSLKPEDTAVYYCAAVVYPRNYWGQGTQVTVSS | high polyreactivity
QVQLVESGGGLVQAGGSLRLSCAASGSIFYRYAKGWYRQPPGKETELVAAIRTTGGRTYYADSVKGRFTISRDNAKNTVYLQMNSLKPADTAVYYCNALQAGVSYDYWGQGTQVTVSS | high polyreactivity
QVQLVESGGGLVQAGGSLRLSCAASGFIFYDYAMGWYRQAPGKERELVAVITRGGSTYYADSVKGRFTISRDNAKNTVYLQMNSLKPEDTAVYYCAAYWFTPGFTFDYWGQGTQVTVSS | low polyreactivity
QVQLVDSGGGLVQAGGSLRLSCAASGRTIGGNAMGWSRQAPGKERELVAGINISGGSTNYADSVKGRFTISRDNAKNTVYLQMNSLKPEDTAVYYCNADTAVYAWDDDYWGQGTQVTVSS | low polyreactivity
QVQLVESGGGLVQAGGSLRLSCSASGRNFWFYAKGWYRQAPGKERELVAAISSGGSTNYADSVKGRFTISRDNAKNTVYLQMNSLKPEDTAVYYCAKVGNIPYGTRYYSNRYDYWGQGTLVTVSS | low polyreactivity
QVQLVESGGGLVQAGGSLRLSCAASGFTFAKNAMGWYRQAPGKERELVATISRSGGSTYYADSVKGRFTISRDNAKNTVYLQMNSLKPEDTAVYYCAADRSYGVLGNEGGYWGQGTQVTVSS | high polyreactivity
QVQLVESGAGLVQAGGSLRLSCAPSGSTFMTYAMGWYRQAPGKERELVAAIRWSGGGTYYADSVKGRFTISRDNAKNTVYLQMNSLKPEDTAVYFCAADHFNYTTGRDYWGQGTQVTVSS | low polyreactivity
PVQLVESGGGLVQAGGSLRLSCAASGRIFKPYAMGWYRQAPGKERELVAAISGSGTRTYYADSVKGRFTISRANAKNTVYLQMNSLKPEDTAVYFCAAAYYSTYRNRMDYWGQGTQVTVSS | high polyreactivity
HVQLQESGGGLVQAGGSLRLSCAASGNISYSRNMGWYRQAPGKERELVAAIDRGAITYYADSVQGRFTISRDNAKNTVYLQIYSLKPEDTAVYYCAAEYHDRWDHLYWGQGTQVTVSS | high polyreactivity
QVQLVESGGGLVQAGGSLRLSCAASGITFYQYVMGRYRQAPGKERELVAAISTSGDSTYYADYVKGRFTISRDNAKNTVYLQINSLKTEDTAVYYCATYWSGHYYYWGQGTQVTVSS | high polyreactivity
QVQLVESGGGLVQAGGSLRLSCPASGSTFPYYAMGWYRQAPGKERELVARINWGGSSTYYADSVKGRFTISRDNAKNTVYLQMNSLKPEDTAVYYCARYSSRWSLMDYWGQGTQVTVSS | high polyreactivity
QVQLVESGGGLVQAGGSLRLSCAASGSIFAFNVMGWYRQAPGKERELVAAITWGGRTYYADSVKGRFTISRDNAKNTVYLQMNSLKPEDTAVYYCAAYPLYRVSHGYEYNYWGQGTQVTVSS | high polyreactivity
QVQLVESGGGLVQAGGSLRLRCAASGSNFVSYAMGSYRQAPGKERELVATITTSTGSTYADSVKGRFTISRDNAKNTVYLLMYSLKPEDTAVYYCAARYLPWLKYDFDSWGQGTQVTVSS | low polyreactivity
QDQLVESGGGLVQAGGSLRLSCAASGRTFVHYVMGWYRQAPGKERELVAAITSSGGSTYADSVKGRFTISRDNAKNTVYLQMNSLKPEDTAVYYCAADYLDGVGDVEHDYWGQGTQVTVSS | low polyreactivity
QVQLVESGGGLVQAGGSLRLSCAASGNTFPAYAMGWYRQAPGTGGELVATISWSTGSTNYADSVKGRFTISRDNAKNTVYLQMNSLKPEDTAVYYCNKRYPSDQMDYWGQGTQVTVSS | low polyreactivity
QVQLVESGGGLVQAGGSLRLSCAASGRTIGTYAMGWYRQAPGTERELVAAIRSNAGSTYYADSVKGRFTISRDNGKNTVYLQMNSLKPEDTAVYYCAKSYRSSRRYNYWGQGTQVTVSS | high polyreactivity
QVQHVESGGGLVQAGGSLRLSSAASGRTYWPNAMGWYRQAPGKERELVAAISSGGSTNYADSVKGSFTISRDNAKNTVYLQMNSLKPEDTAVYFWSADGQGDKYDYYGHNYWGQGTHVTVSS | low polyreactivity
QVQLVESGGGLVQAGGSLRLSCAASGSTFYNYAMGWCRLAPGKERELVAATSSGGSTNYADSVKGRFTISRDNAKNTVFLQMISLKPEDNAVYYCARRHRVYPSRIGHDYWGQGTQVTVSS | low polyreactivity
QVQLVESGGGLVQAGGSLRLSCAASGRTFWYNARGWYRQAPGKERELVAAITRGGGRTYYADSVKGRFTISRDNAKNTVYLQMNSPKPEDTAVYYCADDSHYDMNYWGQGTQVTVSS | low polyreactivity
QVQLVESGGGLVQAGGSLRLSCAASGSTYANAMGWYRQAPGKERELVAAITDNGGRTYYADSVKGRFTISRDNEKNNVYLQMNSLKPEDTAVYYCAARSSVWGQVTQVTVSS | low polyreactivity

Sequence | polyreactivity (PSR sort gate)
QDQHVESVGGLVQAGGSLRLSCAASGRTFAWNAMGWYRQAPGKERELVAVITSGGSTNYADSVKGRFTISRDNAKNTVYLQMKSLKPEDTALYYCAAGHSWVYGYDYWGQGTQVTVSS | low polyreactivity
QVQLVESGGGLVQAGGSLRLSCAASGRTFAIYVMGWYRHAPGKERELVAAITRVGSTYADSVKGRFTISRDNAKNTVYLQMNSLKPEDTAVYYCAAVSGVRSGPWRYDYWGQGTQVTVSS | high polyreactivity
QVQLVESGGGLVQAGGSLRISCAASGSIFDLNAMGWYRQAPGKERELVAAISSGGRTTYADSVKGRFTISRDNAKNTVYLQMNSLKPEDTAFYYCNAVGDVFPRTGPIYDYWGQGSQVTVSS | high polyreactivity
QVQLEESGGGLVQAGGSLRLSCAASGIFSRYAMGWDRQAPGKERELVAAISSRGSTYYADSVKGRFTISRDNAKYTVYLQLNSMKPEDTGVYYCAATVGRGKLDYWGQGTQVNVSS | high polyreactivity
QVQLVESGGGLVQAGGSLRLSCAASVFTCAVYVMGWYRQAPGKERELVANISFSVGSTYYADSVKGRFTISRDYAKNTVYLQMNSLKPEDTAVYYCNADPPPEYYPDKDNYWGQGTQVTVSS | low polyreactivity
QVQLVESGGGLVQAGGSLRLSCSASGLIFPSNTMGWYRQAPGTERELVAAITFSGDSTNYADSVKGRFTISRDNAKNTVYVQMNSLKPEDTAVYYCAASQVSDTTRFGYWGQGTQVTVSS | low polyreactivity
QVQLVESGAGLVQAGGSLRLSCAASGRTFSGYAMGGYRQAPGKERELVAAISWRGGRTYYADSVKGRFTISRDNAKNTVYLLMYSLKPEDTAVYYCNTVGHVYYGEFDYWGQGTQVTVSS | high polyreactivity
QVQLVESGGGLVQAGGSLRLSCAASGFTFYYYAMGWYRQSPGKERELVAAISWNGGRTYYADSVKGRFTISRDTAKNNVYLQMNSLKPEDTAVYYCDTGYPIDLGREFDYWGQGIQVTVSS | high polyreactivity
QVQLVESGGGLVQAGGSLRLSCAASGITFLHYAMGWYRQAPGKERELVARITYSGSSTYYADSVKGRFTISRDNAKNTVYLQMNSLKPEDTAVYYCNARASWGRWSRTGTPRYDYWGQGTQVTVSS | high polyreactivity
QVQLVETGGGLVQAGGSLRLSCAASGTIFTNYTMGWYRQAPGKERELVASISWSGGRTYYADSVKGRFTISRDNAKNTVYLQMNSLKPEDTAVYYCAAVSRAPGLRYDYWGQGTQVTVSS | high polyreactivity
QVQLVESGGGLVQAGGSLRLSCAASGSTFDIYAMGWYRQAPGKERELVAAIRYSGGSTYYADSVKGRFTISRDNAKYTVYLQMNSLKPEDTAVYYCAADPYQLWHYYYFGMDYWGQGTEVTVSS | low polyreactivity
QVQLVESGGGLVQAGGSLRLSCAASGRTFGEYTMGWYRQAPGKERELVAAISSAGRTNYADSVKGRFTISRDNAKNTVYLQMNSLKPEDTAVYYCAADWTDDVPGYDYWGQGTQVTVSS | low polyreactivity
QVQLVESGGGLVQAGGSLRLRCAASGIIFYRYAMGWYRQAPGKERELVAAINTSGGRTYYADSVKGRFTISRDNAKNTVYLQMNSLKPEDTAVYYCAAYYSPVGFQYDYWGQGTQVTVSS | high polyreactivity
QDQLVESAGGLVQAGGSLRLSCAASGRIFSRYAMGWYRQAPGKERELVAAITQSGTSTYYADSVKGRFTISRDIAKNTVYLQMNSLKAEDTAVYYCNAYSQYRYDYWGQGTQVTVSS | low polyreactivity
QVQLVESGGGLVQAGGRLRLSCAASGFIFPVYAMGWYRQAPGKERELVASITTGGSTNYADSVKGRFTISRDNAKNTVYLQMNSLKPEDTAVYYCNKDTPASLANQYNYWGQGTQVTVSS | low polyreactivity
QVQLVESGAGLVQAGGSLRLSCAASGSTFSYNAMGWYRQAPGKERELVAAISRRGDSTYYADSVKGRFTISRDNAKNTVYLQMNSLKTEDTAVYYCYAVTYYSHRYFSWYSRKGYDYWGQGTEVTVSS | high polyreactivity
QVQLVESGGGLVQAGGSLRVSCAASGYIFTPYAMGWYRQAPGKERELVAAISSSTVRTFYADSVKGRFTISRDNAKNTVYLQMNSLKPEDTAVYYCAARGYWGQGTQVTVSS | high polyreactivity
QVQLVESGGGLVQAGGSLRLSCDASGRTFASNVMGWYRQAPGKERELVAAISRRGGSTYYADSVKGRFTISRDNAKNTVYLQMNSLKPEDTAVYYCNADDKAQSDYWGQGTQVTVSS | high polyreactivity
QVQLVESGGGFVQAGGSLRLSCAASGSTFGYYVMGWYRQAPGKERELVAAISASGGSTYYADSVKGRFTISRDNAKHTVYLQMNSLKPEDTAVYYCAAGGYYVRYDYWGQGTQVTVSS | high polyreactivity
QVQLVESGGGLVQAGGSLRLSCAASGSILGINVMGWYRQAPGKERELVAAISWRVGRTYYADSVKGRFTISRDNAKKTDDLQMNSLKPEDTAVYYCNVDRWGNIPVGDYDYWGQGTEVTVSS | high polyreactivity
QVQLVESGGGLVQAGGSLRLSCAASGRITYYAMGWYRQAPGKERELVAVISWSGSSTNYADSVKGRFTISRDNAKNTVYLQMNSLKPEDTAVYFCAAENAVTGTDGEYYYWGQGTQVTVSS | high polyreactivity
